Two molecules from patent US9217139B2, “Extracellularly secreted nuclease” (JAPAN AGENCY FOR MARINE-EARTH SCIENCE AND TECHNOLOGY, priority 2010, dated 2015) can be followed below.

What all share (format): biochemical
The subject of data set [1] is Deoxyribonucleic acid sodium salt from salmon testes. Briefly: effects of monovalent salt on enzyme activity. Particulars: 10 mM Tris/HCl pH 8.5, 1 mM MgCl2, 25 degrees Celsius. The procedure: Effects of monovalent salt on NucS and NucL were examined. At each concentration level of NaCl, the nucleic-acid degradation activity was measured at 25 degrees Celsius for 15 minutes by using, as substrate, Deoxyribonucleic acid sodium salt from salmon testes 0.4 mg/mL (manufactured by Sigma-Aldrich; Cat no. D1626-1G) in 10 mM of Tris/HCl at pH 8.5 that contained 1 mM of MgCl2 and 0 to 1,000 mM of NaCl. […] Substantially similar results were obtained even in the case of using KCl (referring to FIG. 8).

The subject of data set [2] is linear double-stranded DNA (pUC18 plasmid cut by BamHI, SacI, SmaI). Briefly: degradation pattern of linear double-stranded DNA. Particulars: for degradation of linear double-stranded DNA regardless of the structure of DNA strand ends: 5'-protruding, 3'-protruding and flush ends; for efficiency of degradation of linear double-stranded DNA compared with circular DNA: comparison of FIGS. 12, 16, 17. From the text:
With the use of the standard specific activity measurement method, as well as of a substrate obtained by making circular DNA (pUC18 plasmid) linear by using restriction nucleases BamHI (which generates a 5′-protruding end), SacI (which generates a 3′-protruding end), and SmaI (which generates a flush end), a degradation reaction took place with the use of NucS and NucL (referring to FIGS. 16 and 17).
Given the above results, it is presumed that NucL has a reaction style called an endo-exo type.

Data set [3] has as its system Deoxyribonucleic acid sodium salt from salmon testes. Briefly: effects of phosphate on enzyme activity. The procedure: Effects of phosphate on NucS and NucL were examined. In 0 to 40 mM of potassium phosphate buffer at pH 8.5 that contained 1 mM of MgCl2 and 1 mM of CaCl2, the nucleic-acid degradation activity was measured at 25 degrees Celsius for 15 minutes by using, as substrate, Deoxyribonucleic acid sodium salt from salmon testes 0.4 mg/mL (manufactured by Sigma-Aldrich; Cat no. D1626-1G). […] Meanwhile, compared with NucS, NucL was excellent in resistance to phosphate. NucL could maintain 50 percent of activity even in the presence of 10 mM of potassium phosphate (referring to FIG. 11).

In data set [4] the test system is salmon DNA (double-stranded DNA) and thermally-denatured DNA (single-stranded DNA). Briefly: reactivity test for single-stranded and double-stranded DNA. Particulars: 15-minute standard specific activity measurement method. How it is done:
With the use of a 15-minute standard specific activity measurement method, the reactivity of each enzyme was tested for salmon DNA (double-stranded DNA) that was dissolved at low temperatures, as well as for the same DNA (single-stranded DNA) that had been subjected to thermal denaturation at 95 degrees Celsius for 10 minutes. […] That is, it can be said that NucL is an enzyme that efficiently works on single-stranded DNA.

Data set [5] relates to circular DNA (pUC18 plasmid). Briefly: reaction styles in initial stage of degradation of circular DNA. How it is done: According to the standard specific activity measurement method, reaction styles in an initial stage of degradation reaction for circular DNA (pUC18 plasmid) of NucS and NucL were analyzed (referring to FIGS. 14 and 15). […] The degradation of circular plasmid DNA executed by the single strand-specific nucleolytic enzyme is considered to proceed as the molecular weight degreases due to accumulation of endo-type cleavage of single strands.

Data set [6] can be described thus: phosphodiesterase activity test. The note with it: 100 mM Tris/HCl pH 8.5, 1 mM MgCl2, 1 mM CaCl2, 1 percent glycerol, 25 degrees Celsius. How it is done:
(§1) Bis(p-nitrophenyl)phosphate and p-nitrophenylphosphate were used as substrate. The method of Tomoyeda et al. (referring to Archives of biochemistry and biophysics. 131(1), 191-202, 1969; the contents of the document are incorporated herein by reference) was used. In 100 mM of Tris/HCl at pH 8.5 that contained 1 mM of MgCl2, 1 mM of CaCl2, and 1 percent of glycerol, with the use of a reaction solution that contained 0.2 percent of the above substrate, the phosphodiesterase activity and phosphatase activity of both enzymes were measured at 25 degrees Celsius.

A short description of data set [7]: thermal stability test (residual activity). The note with it: heat treatment 30 minutes, 20 mM Tris/HCl pH 8.5, 1 mM MgCl2, 1 mM CaCl2; ice bath = 100 percent. The procedure:
After heat treatment was conducted for 30 minutes at each temperature in 20 mM of Tris/HCl at pH 8.5 that contained 1 mM of MgCl2 and 1 mM of CaCl2, the residual activity was measured (referring to FIG. 6). An activity of an enzyme stored in an ice bath was regarded as 100 percent.

The test system of data set [8] is Deoxyribonucleic acid sodium salt from salmon testes. Briefly: effects of divalent metal salt on enzyme activity. Particulars: 20 mM Tris/HCl pH 8.5, 1 mM CaCl2, 25 degrees Celsius. The procedure: Effects of divalent metal salt on NucS and NucL were examined. NucS or NucL was added to a reaction solution that was obtained by adding, as substrate, Deoxyribonucleic acid sodium salt from salmon testes 0.4 mg/mL (manufactured by Sigma-Aldrich; Cat no. D1626-1G) into 20 mM of Tris/HCl at pH 8.5 that contained 1 mM of CaCl2 and 0 to 20 mM of MgCl2 or MnCl2; and the mixture was incubated in ice for 30 minutes. Then, the nucleic-acid degradation activity was measured at 25 degrees Celsius for 15 minutes. […] Incidentally, in the present test, in order to enhance the stability of the enzymes, 1 mM of CaCl2 was added to all the reaction solutions.

A short description of data set [9]: phosphatase activity test. Particulars: 100 mM Tris/HCl pH 8.5, 1 mM MgCl2, 1 mM CaCl2, 1 percent glycerol, 25 degrees Celsius. The procedure: as §1
For data set [10], the system named is Deoxyribonucleic acid sodium salt from salmon testes. Briefly: effects of pH on enzyme activity. The note with it: 25 degrees Celsius, 15 minutes, 1 mM MgCl2, 1 mM CaCl2. How it is done:
At each level of pH, the nucleic-acid degradation activity was measured at 25 degrees Celsius for 15 minutes by using, as substrate, Deoxyribonucleic acid sodium salt from salmon testes 0.4 mg/mL (manufactured by Sigma-Aldrich; Cat no. D1626-1G) in 20 mM of the following solution containing 1 mM of MgCl2 and 1 mM of CaCl2: 2-morpholino ethanesulfonic acid; monohydrate/NaOH(MES, pH 5.5 to 7.0); 3-morpholino propanesulfonic acid/NaOH (MOPS, pH 7 to 8); N-tris(hydroxymethyl)methyl-3-aminopropanesulfonic acid/NaOH (TAPS, pH 8 to 9); N-cyclohexyl-2-aminoethanesulfonic acid/NaOH (CHES, pH 9 to 9.5); or N-cyclohexyl-3-aminopropanesulfonic acid/NaOH (CAPS, 9.5 to 10).

B1: NucL: nucleolytic enzyme of about 66.5 kDa secreted by Streptomyces sp. MBE174; SEQ ID NO. 4 (protein)
chain: MASQSVTRLAALTVAATCSAASVVVLGPPAHADSVRIHDIQGTTRISPYAGRQVADVPGVVTGVRDHGSSRGFWFQDPRPDDDPATSEGVFVFTGSAPGVEAGDAVTVSGTVSEFVPGGTASGNQSLTEITRPTVTVVSRGNPVPDPVVVSARSVPHAYAPAGDAAANGSVNALPLRPDRYALDYYESLEGMNVQVADARVVGATDPYTELWVTVKPGENASPRGGTVYGSRDAQNTGRLQIQTLGVPAGFPAADVGDTLAGATTGPLDYNQFGGYTLVARSLGTLTAGGLARETTREQHRDELSVATYNVENLDPSDGTFAAHAEAIVRNLRSPDIVSLEEIQDDNGATDDGTVTAGVTVGKLIDAVVAAGGPRYDWRSVDPVDKADGGQPGGNIRQVFLFDPRRVSFADRPGGDAVTATGVVKVRGKAALTHSPGRVDPANPAWLNSRKPLAGEFSFRGRTVFVIANHFASKGGDQGLTSQYQPPARSSETQRHLQATAVNTFVKQILAVQKNADVIALGDINDFEFSGTTERLEAGGALWSAVRSLPPGERYSYVYQGNSQVLDQILVSPSIRRGHLSYDSVHINAEFHDQISDHDPQVLRYRP
modifications: Streptmyces sp. MBE174
In the case of B1, the “NaCl concentration up to which the enzyme remained active” value in [1] was “up to 1,000 mM”. In [2], the “reaction style presumed from linear DNA degradation” value is “endo-exo type”, the “degradation of linear double-stranded DNA regardless of the structure of DNA strand ends” value is reported as “can degrade” and the “efficiency of degradation of linear double-stranded DNA compared with circular DNA” value was “more efficiently”. Also, the “activity maintained in the presence of phosphate” value in [3] (10 mM of potassium phosphate, pH 8.5, 25 degrees Celsius) is 50%. In addition, the “efficiency of degrading thermally-denatured DNA compared with native DNA” value in data set [4] is given as “about five times higher”. In addition, the “reaction style in initial stage of degradation of circular DNA” value in [5] was “reaction pattern similar to a single strand-specific, endo-type nucleolytic enzyme”. Also, in [6], the phosphodiesterase activity entry is “has”. Also, in data set [7], the “temperature until which the enzyme remained stable” value is listed as at most 35 degrees Celsius. Moreover, the “requirement of divalent metal salt for activation” value in data set [8] was “required divalent metal salt for activation”. The phosphatase activity entry in data set [9] was “has”. In data set [10], the “optimum reaction pH” value is reported as “around 8.8”.

B2: NucS: low-molecular-weight nucleolytic enzyme, about 17 to 21 kDa, secreted by Streptomyces sp. MBE174; SEQ ID NO. 3 (protein)
chain: MPKLYARRRFAVLAALTGLIASAGLFHGPAASAALPTPVSAATARGYLASLKVAPENRTGYKRDLFPHWITQSGTCNTRETVLKRDGTNVVTDAACAATSGSWYSPFDGATWTAASDVDIDHLVPLAEAWDSGASAWTTAQRQAFANDLTRPQLLAVTDTVNQSKGDKDPAEWMPPRAAYHCTYVRAWVQVKYYYGLSVDTAEKTALTNRLAGC
modifications: Streptmyces sp. MBE174
Consider B2, for which the “activity in dependence on NaCl concentration” value in [1] (0 to 1,000 mM NaCl) is “high when the concentration of NaCl was low”. Besides, in data set [2], the “degradation of linear double-stranded DNA regardless of the structure of DNA strand ends” value is reported as “can degrade” and the “efficiency of degradation of linear double-stranded DNA compared with circular DNA” value is given as “at the same level of efficiency”. In addition, the “phosphate concentration that made the enzyme inactive” value in [3] (potassium phosphate buffer pH 8.5, 1 mM MgCl2, 1 mM CaCl2, 25 degrees Celsius) is listed as at least 0.5 mM. In [4], the “efficiency of degrading thermally-denatured DNA compared with native DNA” value is listed as “at the same level of efficiency”. In addition, in data set [5], the “reaction style in initial stage of degradation of circular DNA” value is “degradation activity of an endo-type style”. Moreover, the phosphodiesterase activity entry in data set [6] is “does not have”. The “temperature until which the enzyme remained stable” value in data set [7] was at most 45 degrees Celsius. Further, in data set [8], the “activity in the presence of 1 to 2 mM of MnCl2 compared with MgCl2” value is recorded as “substantially the same level of activity” and the “requirement of divalent metal salt for activation” value is reported as “required divalent metal salt for activation”. Also, in data set [9], the phosphatase activity entry was “does not have”. In addition, in data set [10], the “optimum reaction pH” value was “around 8.5”.
